Experimental data taken from US20230314420A1 (Genentech, published 2023).

B1: PEG-Filgrastim (other, UniProt P09919-2 31-204, looked up)
chain: TPLGPASSLPQSFLLKCLEQVRKIQGDGAALQEKLCATYKLCHPEELVLLGHSLGIPWAPLSSCPSQALQLAGCLSQLHSGLFLYQGLLQALEGISPELGPTLDTLQLDVADFATTIWQQMEELGMAPALQPTQGAMPAFASAFQRRAGGVLVASHLQSFLEVSYRVLRHLAQP
modifications: pegylated; site not stated
notes: Specificity control
B2: Filgrastim (other, UniProt P09919-2 31-204, looked up)
chain: B1 chain
notes: Specificity control
B3: Vorhyaluronidase Alfa (recombinant human hyaluronidase rHuPH20) (enzyme, UniProt P38567 36-482, looked up)
chain: LNFRAPPVIPNVPFLWAWNAPSEFCLGKFDEPLDMSLFSFIGSPRINATGQGVTIFYVDRLGYYPYIDSITGVTVNGGIPQKISLQDHLDKAKKDITFYMPVDNLGMAVIDWEEWRPTWARNWKPKDVYKNRSIELVQQQNVQLSLTEATEKAKQEFEKAGKDFLVETIKLGKLLRPNHLWGYYLFPDCYNHHYKKPGYNGSCFNVEIKRNDDLSWLWNESTALYPSIYLNTQQSPVAATLYVRNRVREAIRVSKIPDAKSPLPVFAYTRIVFTDQVLKFLSQDELVYTFGETVALGASGIVIWGTLSIMRSMKSCLLLDNYMETILNPYIINVTLAAKMCSQVLCQEQGVCIRKNWNSSDYLHLNPDNFAIQLEKGGKFTVRGKPTLEDLEQFSEKFYCSCYSTLSCKEKADVKDTDAVDVCIADGVCIDAFLKPPMETEEPQIFY
notes: Also the only protein in the two rHuPH20-containing formulation buffers tested as samples; also called rHuPH20-Containing FDC LD Formulation Buffer; rHuPH20-Containing FDC MD Formulation Buffer
B4: Trastuzumab coat reagent: recombinant HER2 extracellular domains I, III, IV fused to a murine Fc; domain II is replaced by structurally related domain II of … (Fc fusion)
chain: KYALADASLKMADPNRFRGKDLPVLDQLLEAASTQVCTGTDMKLRLPASPETHLDMLRHLYQGCQVVQGNLELTYLPTNASLSFLQDIQEVQGYVLIAHNQVRQVPLQRLRIVRGTQLFEDNYALAVLDNGDPLNNTTPVTGASPGGLRELQLRSLTEILKGGVLIQRNPQLCYQDTILWKDIFHKNNQLALTLIDTNRSRACHPCSPMCKGSRCWGESSEDCQKLTKIICAQQCSGRCRGKSPSDCCHNQCAAGCTGPRESDCLVCRKFRDEATCKDTCPPLMLYNPTTYQMDVNPEGKYSFGATCVKKCPRNYVVTDHGSCVRACGADSYEMEEDGVRKCKKCEGPCRKVCYGLGMEHLREVRAVTSANIQEFAGCKKIFGSLAFLPESFDGDPASNTAPLQPEQLQVFETLEEITGYLYISAWPDSLPDLSVFQNLQVIRGRILHNGAYSLTLQGLGISWLGLRSLRELGSGLALIHHNTHLCFVHTVPWDQLFRNPHQALLHTANRPEDECVGEGLACHQLCARGHCWGPGPTQCVNCSQFLRGQECVEECRVLQGLPREYVNARHCLPCHPECQPQNGSVTCFGPEADQCVACAHYKDPPFCVARCPSGVKPDLSYMPIWKFPDEEGACQPCPINCTHSCVDLDDKGCPAEQRRAQVTDKKIEPRGPTIKPCPPCKCPAPNLLGGPSVFIFPPKIKDVLMISLSPIVTCVVVDVSEDDPDVQISWFVNNVEVHTAQTQTHREDYNSTLRVVSALPIQHQDWMSGKEFKCKVNNKDLPAPIERTISKPKGSVRAPQVYVLPPPEEEMTKKQVTLTCMVTDFMPEDIYVEWTNNGKTELNYKNTEPVLDSDGSYFMYSKLRVEKKNWVERNSYSCSVVHEGLHNHHTTKSFSRTPGK
notes: also called T-HER2 variant; capture reagent of the trastuzumab ELISA
B5: Pertuzumab coat reagent: recombinant HER2 extracellular domains I, II, III fused to a murine Fc; domain IV (containing the trastuzumab epitope) is depleted (Fc fusion)
chain: KYALADASLKMADPNRFRGKDLPVLDQLLESTQVCTGTDMKLRLPASPETHLDMLRHLYQGCQVVQGNLELTYLPTNASLSFLQDIQEVQGYVLIAHNQVRQVPLQRLRIVRGTQLFEDNYALAVLDNGDPLNNTTPVTGASPGGLRELQLRSLTEILKGGVLIQRNPQLCYQDTILWKDIFHKNNQLALTLIDTNRSRACHPCSPMCKGSRCWGESSEDCQSLTRTVCAGGCARCKGPLPTDCCHEQCAAGCTGPKHSDCLACLHFNHSGICELHCPALVTYNTDTFESMPNPEGRYTFGASCVTACPYNYLSTDVGSCTLVCPLHNQEVTAEDGTQRCEKCSKPCARVCYGLGMEHLREVRAVTSANIQEFAGCKKIFGSLAFLPESFDGDPASNTAPLQPEQLQVFETLEEITGYLYISAWPDSLPDLSVFQNLQVIRGRILHNGAYSLTLQGLGISWLGLRSLRELGSGLALIHHNTHLCFVHTVPWDQLFRNPHQALLHTANRPEDECVRRAQVTDKKIEPRGPTIKPCPPCKCPAPNLLGGPSVFIFPPKIKDVLMISLSPIVTCVVVDVSEDDPDVQISWFVNNVEVHTAQTQTHREDYNSTLRVVSALPIQHQDWMSGKEFKCKVNNKDLPAPIERTISKPKGSVRAPQVYVLPPPEEEMTKKQVTLTCMVTDFMPEDIYVEWTNNGKTELNYKNTEPVLDSDGSYFMYSKLRVEKKNWVERNSYSCSVVHEGLHNHHTTKSFSRTPGK
notes: also called P-HER2 variant; capture reagent of the pertuzumab ELISA
B6: Pertuzumab (antibody, human IgG1, kappa, V domains shown)
VH: EVQLVESGGGLVQPGGSLRLSCAASGFTFTDYTMDWVRQAPGKGLEWVADVNPNSGGSIYNQRFKGRFTLSVDRSKNTLYLQMNSLRAEDTAVYYCARNLGPSFYFDYWGQGTLVTVSS
VL: DIQMTQSPSSLSASVGDRVTITCKASQDVSIGVAWYQQKPGKAPKLLIYSASYRYTGVPSRFSGSGSGTDFTLTISSLQPEDFATYYCQQYYIYPYTFGQGTKVEIKR
notes: also called rhuMAb 2C4; Pertuzumab IV

Assays:
[1] = molecular target: B4; assay: trastuzumab ELISA specificity test, highest assay concentration, duplicate, OD(405 nm)-OD(490 nm)
[2] = molecular target: B5; assay: pertuzumab ELISA specificity test, highest assay concentration, duplicate, OD(405 nm)-OD(490 nm)
[3] = molecular target: B3; assay: trastuzumab ELISA specificity test; sample rHuPH20-Containing FDC LD Formulation Buffer
Filgrastim [4] = molecular target: B2; assay: trastuzumab ELISA specificity test
PEG-Filgrastim [5] = molecular target: B1; assay: trastuzumab ELISA specificity test
[6] = molecular target: B3; assay: pertuzumab ELISA specificity test; sample Vorhyaluronidase Alfa
Filgrastim [7] = molecular target: B2; assay: pertuzumab ELISA specificity test
PEG-Filgrastim [8] = molecular target: B1; assay: pertuzumab ELISA specificity test
[9] = molecular target: B4; assay: trastuzumab ELISA specificity test; sample Pertuzumab IV

Binder: B1
- OD Mean of Replicates [1]: 0.03 OD
- OD Mean of Replicates [2]: 0.07 OD

Binder: B2
- OD Mean of Replicates [1]: 0.04 OD
- OD Mean of Replicates [2]: 0.08 OD

Binder: B3
- OD Mean of Replicates [1]: 0.03 OD
- OD Mean of Replicates [2]: 0.07 OD

Binder: B4
- binding result [3]: no binding
- binding result (Filgrastim [4]): no binding
- binding result (PEG-Filgrastim [5]): no binding

Binder: B5
- binding result [6]: no binding
- binding result (Filgrastim [7]): no binding
- binding result (PEG-Filgrastim [8]): no binding

Binder: B6
- binding result [9]: no binding
